According to paper PMC9482650, “Quantitative fragmentomics allow affinity mapping of interactomes” (Nature Communications, 2022):
Numbering of substitutions follows the chain as printed.

T1: TIAM2, Q8IVF5
T1 sequence (Q8IVF5 885-986, limits assumed, looked up): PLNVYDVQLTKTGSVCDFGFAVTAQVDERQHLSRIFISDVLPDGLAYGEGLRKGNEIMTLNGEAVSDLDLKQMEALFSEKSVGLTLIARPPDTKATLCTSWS

T2: MPDZ_10, O75970
T2 sequence (O75970 1624-1722, limits assumed, looked up): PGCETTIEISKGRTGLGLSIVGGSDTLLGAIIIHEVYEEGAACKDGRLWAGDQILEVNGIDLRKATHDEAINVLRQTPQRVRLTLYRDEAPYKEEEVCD

T3: DLG3_1, Q92796
T3 sequence (Q92796 125-227, limits assumed, looked up): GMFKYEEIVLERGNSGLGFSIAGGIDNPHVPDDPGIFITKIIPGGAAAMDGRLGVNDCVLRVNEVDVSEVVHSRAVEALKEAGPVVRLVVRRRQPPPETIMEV

T4: GRIP1_4, Q9Y3R0
T4 sequence (Q9Y3R0 467-571, limits assumed, looked up): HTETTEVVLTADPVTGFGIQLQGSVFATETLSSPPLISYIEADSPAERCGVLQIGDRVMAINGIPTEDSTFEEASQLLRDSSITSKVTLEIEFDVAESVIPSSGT

T5: MPP6, Q9NZW5
T5 sequence (Q9NZW5 125-219, limits assumed, looked up): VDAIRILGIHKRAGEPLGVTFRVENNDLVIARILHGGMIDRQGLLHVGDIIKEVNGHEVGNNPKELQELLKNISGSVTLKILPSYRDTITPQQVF

T6: TX1BP3, O14907
T6 sequence (O14907 10-122, limits assumed, looked up): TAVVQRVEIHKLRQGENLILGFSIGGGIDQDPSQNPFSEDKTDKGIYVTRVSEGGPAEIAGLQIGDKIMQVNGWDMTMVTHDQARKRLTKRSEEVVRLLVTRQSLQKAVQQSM

T7: MPDZ_5, O75970
T7 sequence (O75970 695-796, limits assumed, looked up): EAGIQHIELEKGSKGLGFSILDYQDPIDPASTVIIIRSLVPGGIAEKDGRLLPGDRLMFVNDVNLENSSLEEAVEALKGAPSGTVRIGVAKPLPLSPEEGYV

T8: LIN7B, Q9HAP6
T8 sequence (Q9HAP6 88-185, limits assumed, looked up): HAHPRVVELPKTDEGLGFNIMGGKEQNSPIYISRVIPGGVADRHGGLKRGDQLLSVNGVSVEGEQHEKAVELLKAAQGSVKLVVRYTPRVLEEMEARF

T9: ARHGAP21, Q5T5U3
T9 sequence (Q5T5U3 45-169, limits assumed, looked up): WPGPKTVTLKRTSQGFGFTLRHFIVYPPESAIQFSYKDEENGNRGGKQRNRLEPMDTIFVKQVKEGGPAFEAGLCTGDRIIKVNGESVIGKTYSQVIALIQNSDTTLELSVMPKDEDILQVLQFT

T10: SNTB1, Q13884
T10 sequence (Q13884 107-205, limits assumed, looked up): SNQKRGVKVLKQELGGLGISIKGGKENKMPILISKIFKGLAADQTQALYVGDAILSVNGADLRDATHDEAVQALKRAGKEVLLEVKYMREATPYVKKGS

T11: PDZD2_2, O15018
T11 sequence (O15018 329-429, limits assumed, looked up): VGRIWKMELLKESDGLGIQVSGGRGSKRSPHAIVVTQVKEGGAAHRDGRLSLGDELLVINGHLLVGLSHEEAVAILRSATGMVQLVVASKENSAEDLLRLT

T12: LIN7C, Q9NUP9
T12 sequence (Q9NUP9 88-185, limits assumed, looked up): T8 sequence (Q9HAP6 88-185, limits assumed, looked up) with A2S, D13E, V35I, V40I, Q65H, S79K, R89K, A96S


Assays:
Experiment in all cases: holdup assay
Set-up in all cases: key: below the threshold = too weak to quantify, mostly under pKd 3.1 to 4
Settings in all cases: plain residues with an end cap or a label only (N-terminal biotin on a linker: ado-ado)
GRID2IP_2, A4D2P6 = biological target: GRID2IP_2, A4D2P6
TIAM2, Q8IVF5 = biological target: T1, TIAM2, Q8IVF5
MPDZ_10, O75970 = biological target: T2, MPDZ_10, O75970
AHNAK1, Q09666 = biological target: AHNAK1, Q09666
FRMPD2_2, Q68DX3 = biological target: FRMPD2_2, Q68DX3
FRMPD2_1, Q68DX3 = biological target: FRMPD2_1, Q68DX3
DLG3_1, Q92796 = biological target: T3, DLG3_1, Q92796
SCRIB_3, Q14160 = biological target: SCRIB_3, Q14160
GRIP1_4, Q9Y3R0 = biological target: T4, GRIP1_4, Q9Y3R0
MPP6, Q9NZW5 = biological target: T5, MPP6, Q9NZW5
LNX1_2, Q8TBB1 = biological target: LNX1_2, Q8TBB1
SNX27, Q96L92 = biological target: SNX27, Q96L92
TX1BP3, O14907 = biological target: T6, TX1BP3, O14907
PICK1, Q9NRD5 = biological target: PICK1, Q9NRD5
MPDZ_5, O75970 = biological target: T7, MPDZ_5, O75970
LIN7B, Q9HAP6 = biological target: T8, LIN7B, Q9HAP6
ARHGAP21, Q5T5U3 = biological target: T9, ARHGAP21, Q5T5U3
MAGI1_2, Q96QZ7 = biological target: MAGI1_2, Q96QZ7
DLG5_1, Q8TDM6 = biological target: DLG5_1, Q8TDM6
SNTB1, Q13884 = biological target: T10, SNTB1, Q13884
PDZD2_2, O15018 = biological target: T11, PDZD2_2, O15018
LIN7C, Q9NUP9 = biological target: T12, LIN7C, Q9NUP9
LAP2, Q96RT1 = biological target: LAP2, Q96RT1
GRASP, Q7Z6J2 = biological target: GRASP, Q7Z6J2
Inadl_6, Q8NI35 = biological target: Inadl_6, Q8NI35
Inadl_6, Q8NI35, sequence (Q8NI35 1058-1167): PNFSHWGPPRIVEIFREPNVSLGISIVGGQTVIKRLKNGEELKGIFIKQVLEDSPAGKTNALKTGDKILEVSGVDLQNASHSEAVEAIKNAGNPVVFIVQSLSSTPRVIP

AHNAK1, Q09666, sequence (Q09666 4-100): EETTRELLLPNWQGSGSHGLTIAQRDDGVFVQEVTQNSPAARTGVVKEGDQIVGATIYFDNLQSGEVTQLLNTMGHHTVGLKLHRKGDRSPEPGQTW
MAGI1_2, Q96QZ7, sequence (Q96QZ7 456-580): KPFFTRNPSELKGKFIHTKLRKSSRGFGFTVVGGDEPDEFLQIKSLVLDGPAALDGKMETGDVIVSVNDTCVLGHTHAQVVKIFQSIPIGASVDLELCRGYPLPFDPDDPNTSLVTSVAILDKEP
DLG5_1, Q8TDM6, sequence (Q8TDM6 617-713): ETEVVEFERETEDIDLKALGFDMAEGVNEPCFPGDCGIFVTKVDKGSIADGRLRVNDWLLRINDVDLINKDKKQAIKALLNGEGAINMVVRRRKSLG
LNX1_2, Q8TBB1, sequence (Q8TBB1 371-470): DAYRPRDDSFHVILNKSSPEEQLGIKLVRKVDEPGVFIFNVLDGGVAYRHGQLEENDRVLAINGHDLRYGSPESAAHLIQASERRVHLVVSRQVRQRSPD
FRMPD2_2, Q68DX3, sequence (Q68DX3 944-1038): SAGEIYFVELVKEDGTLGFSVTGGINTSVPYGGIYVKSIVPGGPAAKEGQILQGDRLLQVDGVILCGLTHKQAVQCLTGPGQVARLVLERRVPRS
GRID2IP_2, A4D2P6, sequence (A4D2P6 272-370): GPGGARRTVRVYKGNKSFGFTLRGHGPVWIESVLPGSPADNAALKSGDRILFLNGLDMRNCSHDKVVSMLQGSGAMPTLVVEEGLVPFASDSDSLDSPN
LAP2, Q96RT1, sequence (Q96RT1 other isoform, or with tags, fused parts or gaps): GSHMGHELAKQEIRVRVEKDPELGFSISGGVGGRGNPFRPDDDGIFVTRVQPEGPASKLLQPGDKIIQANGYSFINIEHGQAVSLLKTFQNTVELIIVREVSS
FRMPD2_1, Q68DX3, sequence (Q68DX3 770-861): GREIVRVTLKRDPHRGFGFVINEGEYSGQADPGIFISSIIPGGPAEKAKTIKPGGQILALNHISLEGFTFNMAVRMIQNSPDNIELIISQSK
PICK1, Q9NRD5, sequence (Q9NRD5 17-115): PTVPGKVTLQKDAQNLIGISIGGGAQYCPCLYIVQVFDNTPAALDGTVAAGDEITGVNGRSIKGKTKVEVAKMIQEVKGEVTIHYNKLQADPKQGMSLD
SCRIB_3, Q14160, sequence (Q14160 999-1103): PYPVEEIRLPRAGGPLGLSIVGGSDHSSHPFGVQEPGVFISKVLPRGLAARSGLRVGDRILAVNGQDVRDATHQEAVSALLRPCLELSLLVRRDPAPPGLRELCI
GRASP, Q7Z6J2, sequence (Q7Z6J2 96-193): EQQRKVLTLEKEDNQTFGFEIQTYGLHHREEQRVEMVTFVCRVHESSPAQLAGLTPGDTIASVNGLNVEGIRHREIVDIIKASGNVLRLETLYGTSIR

Binder | pKd (GRID2IP_2, A4D2P6) | pKd (TIAM2, Q8IVF5) | pKd (MPDZ_10, O75970) | pKd (AHNAK1, Q09666) | pKd (FRMPD2_2, Q68DX3) | pKd (FRMPD2_1, Q68DX3) | pKd (DLG3_1, Q92796) | pKd (SCRIB_3, Q14160) | pKd (GRIP1_4, Q9Y3R0) | pKd (MPP6, Q9NZW5) | pKd (LNX1_2, Q8TBB1) | pKd (SNX27, Q96L92) | pKd (TX1BP3, O14907) | pKd (PICK1, Q9NRD5) | pKd (MPDZ_5, O75970) | pKd (LIN7B, Q9HAP6) | pKd (ARHGAP21, Q5T5U3) | pKd (MAGI1_2, Q96QZ7) | pKd (DLG5_1, Q8TDM6) | pKd (SNTB1, Q13884) | further results
RRRESYSTTV [EVI5, O60447] | 4.34 | below the threshold | below the threshold | below the threshold | 3.74 | 3.74 | 5.06 | 4.48 | below the threshold | below the threshold | 3.99 | 4.79 | 4.09 | 4.05 | below the threshold | below the threshold | 3.82 | 4.78 | below the threshold | 4.65 | pKd (PDZD2_2, O15018): 4.7; pKd (LIN7C, Q9NUP9): 4.31; pKd (LAP2, Q96RT1): 3.88; pKd (GRASP, Q7Z6J2): 4.55; pKd (Inadl_6, Q8NI35): below the threshold
LRSPRTPSEV [OR10G3, Q8NGC4] | below the threshold | below the threshold | 3.67 | below the threshold | below the threshold | below the threshold | below the threshold | 3.61 | below the threshold | below the threshold | below the threshold | below the threshold | 3.51 | below the threshold | 3.82 | 3.85 | 3.97 | 3.92 | below the threshold | below the threshold | pKd (PDZD2_2, O15018): 3.95; pKd (LIN7C, Q9NUP9): 3.88; pKd (LAP2, Q96RT1): 3.9; pKd (GRASP, Q7Z6J2): below the threshold; pKd (Inadl_6, Q8NI35): below the threshold
